The subject of test [1] is Murine bone marrow derived monocytes (BMMs). In words: Direct cell binding assay, flow cytometry, murine primary cells. The test is classed as cell-based, mouse. As to conditions: for direct cell binding: mouse primary cells, 1 μM, 2.5 μM and 7.5 μM. The method, then:
Murine bone marrow derived monocytes (BMMs) were obtained by flushing the bone marrow from the femur and tibia of WT C57BL6 mice. The cells were treated with ACK red lysis buffer (Thermo Fisher Scientific, USA) and plated on bacterial culture dishes in αMEM growth medium (Biological Industries, Israel) containing recombinant murine M-CSF (40 ng/ml) (R&D systems, USA). The cells were incubated for 3 days at 37° C. under 5% CO2 to induce monocyte adhesion and proliferation. The plates were washed with PBS, the cells were detached using a cell scraper, and 10^5 cells were transferred to each well in a 96-well plate. The cells were washed twice with 200 μl of 0.1% PBSA. Binding was determined as described for labeled M-CSFM and the M-CSFRGD proteins. For murine c-FMS expression, anti-mouse CD115 (CSF-1R) (BioLegend, USA) was used at 1:50 concentration and detected with goat anti-rat (PE) antibody (Abcam, USA). For αvβ3 integrin expression, the Alexa Fluor® 488 anti-mouse/rat CD61 (BioLegend, USA) antibody was used as previously described. Samples were analyzed with Accuri C6 flow cytometry analyzer (BD Biosciences, USA). The experiment was repeated three times at each concentration.
Assays for direct cell binding were conducted on breast cancer cell line MDA-MB-231 and murine primary cells with flow cytometer. MDA-MB-231 was used because the cells express αvβ3 integrin and c-FMS on the cell membrane, a protein expression pattern that imitates the osteoclast state just before reaching full differentiation and maturation. […] Murine primary cells that were obtained from bone marrow were tested for binding without any induction of differentiation (t=0). Such cells express high levels of c-FMS and low levels of αvβ3 integrin (FIGS. 11A and 11B), a state that imitates an early osteoclast differentiation stage.

The test system of test [2] is human peripheral blood CD14+ monocytes differentiating to osteoclasts. In words: Osteoclast differentiation assay of human CD14+ monocytes (TRAP staining). It counts as cell-based. As to conditions: Example 14, CD14+ cells; for osteoclast formation: 50, 250, 1000 nM with M-CSFWT and RANKL. The text has this:
Differentiation assay—BMMs and CD14+ cells were obtained and grown as described above. The plates containing the monocytes were washed with PBS; the cells were detached using a cell scraper for BMMs or Accutase (Biological industries, Israel) for CD14^+; and 2×10^4 BMMs or 1×10^4 CD14^+ cells were transferred to each well in a 96-well plate. Osteoclast differentiation was induced as described in the ‘phosphorylation assay’ section. To determine the influence of M-CSFC31S and the M-CSFC31S,M27R on osteoclast differentiation, the proteins were added to the differentiation medium (with M-CSF and RANKL) in different concentrations (50 nM, 1 μM and 5 μM for BMMs and 50 nM, 250 nM and 1 μM for CD14^+). To determine the influence of human M-CSFWT on the differentiation, it was added to the cells in different concentrations (50 nM 1 μM and 5 μM) without adding murine M-CSFWT. Once the cells were fully differentiated, they were fixed with 4% paraformaldehyde and stained using the tartrate-resistant acid phosphatase (TRAP) staining kit (Sigma-Aldrich, USA) according to the manufacturer's protocol. As the positive control, cells were incubated with M-CSF and RANKL without inhibitors, and the negative control was comprised of cells that were incubated in differentiation medium without RANKL. […] Cells in each image were counted in a double-blind manner, and the number of nuclei in the osteoclasts was determined using ImageJ software. For the positive control of BMMs, an average of 28.33 osteoclasts and 135 nuclei per well were counted. For CD14^+ positive control, the average numbers of osteoclasts and nuclei were 14.5 and 75, respectively, per well. The results for each parameter were normalized to the positive control values.
In light of the above-described decrease in phosphorylation, it was hypothesized that incubation of M-CSFC31S,M27R with differentiating monocytes would result in decreased formation of osteoclasts. To test this premise, either BMMs or CD14^+ cells were incubated with murine or human M-CSFWT (20 ng/ml), respectively, and murine RANKL (20 ng/ml) together with M-CSFC31S and M-CSFC31S,M27R at concentrations of 50 and 1000 and 5000 nM for BMMs and 50, 250, 1000 nM for CD 14^+ cells. The cells were allowed to differentiate for 96 h or until they reached full differentiation. In BMMs incubated with M-CSFC31S, osteoclasts formed rapidly, and therefore they differentiated only for 72 h. Then, the cells were stained with a tartrate-resistant acid phosphatase (TRAP) staining kit (FIGS. 19A, B). […] This inhibition of differentiation behavior was observed also for M-CSFWT.

B1: 5.6: bispecific M-CSFRGD variant from sort five; M-CSFM loop replaced by XXXRGDXXX motif; binds c-FMS and αvβ3 integrin (protein)
chain: EEVSEYCSHMIGSGHLQSLQRLIDTYPRGDMCSITFEFVDQEQLKDPVCYLKKAFLLVQDIMEDTMRFRDNTPNAIAIVQLQELSLRLKSCFTKDYEEHDKACVRTFYETPLQLLEKVKNVFNETKNLLDKDWNIFSKNCNNSFAECSSQGHERQSEGS
modifications: left off: small tags and cut ends
For the molecule B1, the direct cell binding entry in test [1] is reported as “binding in a dose dependent manner”.

B2: M-CSFM: 158 amino acid M-CSF with cysteine at position 31 replaced by serine (SEQ ID NO: 2) (protein)
chain: EEVSEYCSHMIGSGHLQSLQRLIDSQMETSSQITFEFVDQEQLKDPVCYLKKAFLLVQDIMEDTMRFRDNTPNAIAIVQLQELSLRLKSCFTKDYEEHDKACVRTFYETPLQLLEKVKNVFNETKNLLDKDWNIFSKNCNNSFAECSSQGHERQSEGS
In the case of B2, the direct cell binding result in test [1] is on record as “binding in a dose dependent manner”. Also, the relative cell binding result in test [1] (no induction of differentiation (t=0)) was “stronger cell binding than 5.6 and 4.22”. Further, in test [2], the “number of osteoclasts and number of nuclei” value was “the opposite result”; the osteoclast formation result is recorded as “highly accelerated in the two lower concentrations”.

B3: M-CSFC31S,M27R: M-CSF double mutant containing both C31S and M27R; monomeric, monospecific c-FMS antagonist (protein)
chain: EEVSEYCSHMIGSGHLQSLQRLIDSQRETSSQITFEFVDQEQLKDPVCYLKKAFLLVQDIMEDTMRFRDNTPNAIAIVQLQELSLRLKSCFTKDYEEHDKACVRTFYETPLQLLEKVKNVFNETKNLLDKDWNIFSKNCNNSFAECSSQGHERQSEGS
With B3, in test [2], the “number of osteoclasts and number of nuclei” value is “a decrease in both parameters, in a dose-dependent manner”; the osteoclast formation entry was “significantly inhibited, in a dose-dependent manner”.
